Results taken from PMC4810211, “DNA Aptamers against Taiwan Banded Krait α-Bungarotoxin Recognize Taiwan Cobra Cardiotoxins”.

T1: cardiotoxin 2 (CTX2) (Naja atra (Taiwan cobra), UniProt P01442 22-81)
T1 sequence: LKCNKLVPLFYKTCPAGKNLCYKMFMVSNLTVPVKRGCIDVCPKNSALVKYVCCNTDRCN

T2: cardiotoxin 1 (CTX1) (Naja atra (Taiwan cobra), UniProt P60304 22-81)
T2 sequence: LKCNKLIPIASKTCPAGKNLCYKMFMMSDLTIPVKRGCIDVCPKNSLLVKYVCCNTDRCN

T3: cardiotoxin 3 (CTX3) (Naja atra (Taiwan cobra), UniProt P60301 22-81)
T3 sequence: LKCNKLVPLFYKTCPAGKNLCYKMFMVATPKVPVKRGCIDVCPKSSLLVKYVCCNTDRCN

T4: cardiotoxin 4 (CTX4) (Naja atra (Taiwan cobra), UniProt P01443 22-81)
T4 sequence: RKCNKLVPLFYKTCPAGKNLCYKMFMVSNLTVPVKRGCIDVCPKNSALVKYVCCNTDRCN

T5: cardiotoxin-like protein (CLBP) (Naja atra (Taiwan cobra), UniProt P62375 22-83)
T5 sequence: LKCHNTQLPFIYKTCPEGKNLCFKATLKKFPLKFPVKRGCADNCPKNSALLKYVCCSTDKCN

T6: cardiotoxin N (CTXN) (Naja atra (Taiwan cobra), UniProt P80245 22-81)
T6 sequence: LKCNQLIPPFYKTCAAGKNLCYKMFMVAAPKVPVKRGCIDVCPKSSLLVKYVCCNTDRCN

T7: cardiotoxin 5 (CTX5) (Naja atra (Taiwan cobra), UniProt Q98961 22-81)
T7 sequence: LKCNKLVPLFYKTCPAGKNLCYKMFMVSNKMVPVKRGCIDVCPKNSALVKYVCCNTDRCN


Assays:
cardiotoxin 2 (CTX2) = target: T1, cardiotoxin 2 (CTX2); experiment: fluorescence quenching titration; 10 mM Tris-HCl pH 7.5, 1 mM EDTA, 100 mM NaCl; temperature not stated; fluorescence with 4 nM aptamer (ex 480/em 520 nm); EMSA with 5 uM aptamer, 20 min, 2% agarose, TAE; details: protein: native; tags: none; label: 5'-FAM
cardiotoxin 1 (CTX1) = target: T2, cardiotoxin 1 (CTX1); experiment: as above; details: protein: native; tags: none; label: 5'-FAM
cardiotoxin 3 (CTX3) = target: T3, cardiotoxin 3 (CTX3); experiment: as above; details: protein: native, tags: none, label: 5'-FAM
cardiotoxin 4 (CTX4) = target: T4, cardiotoxin 4 (CTX4); experiment: as above; details: protein: native; tags: none; label: 5'-FAM
[1] = target: T5, cardiotoxin-like protein (CLBP); experiment: fluorescence quenching titration; 10 mM Tris-HCl pH 7.5, 1 mM EDTA, 100 mM NaCl; temperature not stated; […]; details: protein: native; tags: none; label: 5'-FAM
cardiotoxin N (CTXN) = target: T6, cardiotoxin N (CTXN); experiment: as above; details: protein: native; tags: none; label: 5'-FAM
cardiotoxin 5 (CTX5) = target: T7, cardiotoxin 5 (CTX5); experiment: as above; details: protein: native; tags: none; label: 5'-FAM
[2] = target: alpha-bungarotoxin (α-Bgt) (Bungarus multicinctus (Taiwan banded …, UniProt P60615 22-95)); experiment: as above; details: protein: native; tags: none; label: 5'-FAM
Sequence of alpha-bungarotoxin (α-Bgt) (Bungarus multicinctus (P60615 22-95): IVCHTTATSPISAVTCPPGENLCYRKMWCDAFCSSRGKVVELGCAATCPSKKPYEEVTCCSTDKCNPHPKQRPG

| Binder | Kd (cardiotoxin 3 (CTX3)) [nM] | Kd [2] [nM] | also measured |
| --- | --- | --- | --- |
| GCGAGGTGTTCGAGAGTTAGGGCGACATGACCAAACGTT (ssDNA) [FAM-bgt1] | 2250 | 2210 | Kd (cardiotoxin 2 (CTX2)): 6290 nM; Kd (cardiotoxin 1 (CTX1)): 2510 nM; Kd (cardiotoxin 4 (CTX4)): 8130 nM; Kd [1]: 7190 nM; Kd (cardiotoxin N (CTXN)): 8850 nM; Kd (cardiotoxin 5 (CTX5)): 17200 nM |
| GCGAGGTGTTCGAGAGTTAGGGCGACATGACCAAACGTT (ssDNA) [FAM-bgt1-DABCYL] | – | – | Kd (cardiotoxin 3 (CTX3); 3'-DABCYL): 2350 nM |
| AGGGCACAGAGAAGAAGTCGTGGATTTGAATGGTTTTGGT (ssDNA) [FAM-bgt2] | 260 | 460 | – |
| ATCATGTCTTTTCGGGATGGGCAAGAAGGGAAATAATGC (ssDNA) [FAM-bgt3] | 1260 | 140 | – |
| AGAAACGTAGCGGTAACTGCTAGAATGCGCCGAGAGAGCG (ssDNA) [FAM-bgt4] | 1170 | 280 | – |
